Reference: paper PMC11189624
pKd: −log10 of the molar value.

Columns and labels:
[1] = target: Mlph-ABD labelled with ATTO 488 NHS Ester dye (mouse) (UniProt Q91V27); assay: MST; Monolith NT.115, 25 °C; Mlph-ABD labelled with ATTO 488 at 20 nM; two-fold dilution series (16) of Myo5a-MTD or Myo5a-MTDΔG from 50 uM; 50 mM Tris-HCl pH 7.8, 100 mM NaCl, 10 mM MgCl2, 0.05% Tween 20
[2] = target: Melanophilin GTBM (Mus musculus) (UniProt Q91V27); conditions: cited from earlier work
Chain of Melanophilin GTBM (Mus musculus) (Q91V27 176-201): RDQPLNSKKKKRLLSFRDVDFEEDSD

Chain of Myosin-5a GTD (Q99104 1469-1853): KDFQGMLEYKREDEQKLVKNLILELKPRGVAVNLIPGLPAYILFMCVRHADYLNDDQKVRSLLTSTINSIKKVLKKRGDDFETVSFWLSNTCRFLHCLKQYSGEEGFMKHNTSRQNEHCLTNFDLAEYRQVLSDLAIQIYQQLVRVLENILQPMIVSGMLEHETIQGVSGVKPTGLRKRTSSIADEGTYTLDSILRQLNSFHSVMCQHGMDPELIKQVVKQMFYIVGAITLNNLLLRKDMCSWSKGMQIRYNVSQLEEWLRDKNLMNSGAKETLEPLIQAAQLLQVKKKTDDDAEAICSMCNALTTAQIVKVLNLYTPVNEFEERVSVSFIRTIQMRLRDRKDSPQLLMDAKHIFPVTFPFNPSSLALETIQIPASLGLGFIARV
Chain of Mlph-ABD labelled with ATTO 488 NHS Ester dye (mouse) (Q91V27 401-590): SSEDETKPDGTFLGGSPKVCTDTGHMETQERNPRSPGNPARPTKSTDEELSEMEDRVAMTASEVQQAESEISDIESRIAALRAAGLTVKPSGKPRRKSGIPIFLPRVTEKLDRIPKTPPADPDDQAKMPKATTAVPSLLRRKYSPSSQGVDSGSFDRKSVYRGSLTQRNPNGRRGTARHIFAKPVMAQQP

| Substance | pKd [1] | pKd [2] |
| --- | --- | --- |
| Flag-Myo5a-MTD (residues 1106–1467), bacterial-expressed (domain or fragment) | 6.25 |  |
| Myosin-5a GTD (from UniProt Q99104) |  | 6.00 |
